Source: patent US20260250410A1, “ANTIBODY AND USE THEREOF” (SICHUAN HUIYU PHARMACEUTICAL CO., LTD., priority 2022, published 2026)
One block for each molecule: values may come before it.

Legend:
Format in all cases: cell-based, human
MDA-MB-231 cells [1] = assay: Endocytosis capacity of single B cell antibodies; conditions: MDA-MB-231, 2 h at 37° C., antibody 1.5 μg/mL
Protocol: The endocytosis capacity of the antibody was detected for 0.5 to 2 hours. MDA-MB-231 cells were subjected to digestion with 5 mM EDTA, and plated at 2×10^4 cells/well after cell counting. After adding an Fc blocker (Human TruStain FcX™, Biolegend, 422302) and blocking at room temperature for 10 mins, a test antibody (1.5 μg/mL) was added, and the mixture was incubated at 4° C. for 30 mins, centrifuged, and washed twice with PBS+2% FBS, then the cells were divided into four equal portions (labeled as 0 h, 0.5 h, 1 h, 2 h), cells labeled as 0.5 h, 1 h, 2 h time points were added to 200 μL of cell culture medium, and cultured at 37° C. for 0.5 h, 1 h, 2 h, respectively. Cells at 0 h point were centrifuged, a secondary antibody (PE anti-human IgG Fc Antibody, Biolegend, 410708) was added, and the mixture was incubated at 4° C. for 30 mins, centrifuged, and washed twice with PBS+2% FBS, and detection was performed using a flow cytometer. After incubation of cells labeled as 0.5 h, 1 h, and 2 h points at 37° C. was completed, a secondary antibody was added (in the same steps as those at 0 h point), Geo-MFI of the signal under the same voltage was collected as detection signal at 0 h, and antibody internalization rate was calculated according to the following equation: Internalization (%)=(Geo-MFI (0 h)-Geo-MFI (2 h))/Geo-MFI (0 h)×100%.

MDA-MB-231 cells [2] = assay: Flow cytometry binding of murine monoclonal antibody to tumor cells; conditions: cells with high expression of CDCP1
Protocol: (§1) Flow cytometry was used to detect the binding capacity of antibody to tumor cells. […] 2.0×10^4 tumor cells were added per well, respectively, and 50 μL (PBS+2% FBS) were added, and after blocking at room temperature with an Fe blocker (Human TruStain FcX™, Biolegend, 422302) for 10 mins, an anti-CDCP1 murine monoclonal antibody at a final concentration of 200 nM was added. The obtained mixture was subjected to a 3-fold serial dilution across 8 concentration points, and incubated at 4° C. for 30 mins, and then incubated with a secondary antibody (PE anti-human IgG Fc Antibody, Biolegend, 410708), detection was performed using a flow cytometer.

PC3 cells [3] = assay: as above; conditions: cells with high expression of CDCP1
Protocol: as §1

MDA-MB-231 cells [4] = assay: Endocytosis capacity of murine monoclonal antibody (flow cytometry internalization); conditions: antibody 1.5 μg/mL
In short: (§2)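 MDA-MB-231 and PC3 cells (EDTA-detached, Fc-blocked) bound with 1.5 μg/mL test antibody at 4° C for 30 min, washed, then held at 37° C for 0.5, 1 or 2 h. Surface antibody detected with PE anti-human IgG Fc by flow cytometry; internalization (%) = (Geo-MFI 0 h − Geo-MFI at time point)/Geo-MFI 0 h × 100%.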

PC3 cells [5] = assay: as above; conditions: antibody 1.5 μg/mL
In short: as §2

MDA-MB-231 cells [6] = assay: Effect of antibody on tumor cell proliferation (CellTiter-Glo); conditions: MDA-MB-231, 96 h
Protocol: (§3) 3000 cells (breast cancer MDA-MB-231, prostate cancer PC-3 cells)/well were plated onto 96-well plates overnight, an antibody at a final concentration of 500 nM to 0.00128 nM (100 nM to 0.000256 nM, 100, 20, 4, 0.8, 0.16, 0.032, 0.0064, 0.00128, 0.000256 nM, respectively) was added; after a 5-fold dilution across 9 concentration points and culturing in a CO2 incubator at 37° C. for 96 h, half of the medium (100 μL) was discarded, and 100 μL of CellTiter-Glo Luminescent Cell Viability assay reagent (Promega, cat #G7570) was added to detect signal values on a BMG microplate reader. The inhibition of antibody on tumor cell growth was calculated by graphpad fitting based on the signal value and antibody concentration.

PC-3 cells = assay: as above; conditions: PC-3, 96 h
Protocol: as §3

MDA-MB-231 cells [7] = assay: Transwell tumor cell migration experiment; conditions: MDA-MB-231, antibody 10 μg/ml
Protocol: In order to determine the effect of antibodies on tumor cell metastasis, the migration ability of tumor cells was examined in this study according to a transwell experiment. The specific cell migration experiment involved culturing and collecting MDA-MB-231 cells, washing them once with PBS, adjusting the density to 8×10^5 cells/mL, adding the antibody to be tested to the cells such that the working concentration thereof was 10 μg/ml, co-incubating for 30 mins, adding a cell suspension to the upper chamber of the transwell chamber, placing the transwell chamber in the incubator for 12-48 h, then removing the chamber (transwell chamber, to examine cell migration ability), immobilizing the cells, staining the cells with crystal violet for 15 mins, washing, air drying, mounting, and taking photos of 4-5 fields of view under a microscope, and counting the number or area of the stained cells using imageJ analysis software, the number or area was used as the basis for determining tumor cell migration.

B1: SB5: anti-CDCP1 antibody by single B cell technique; VH SEQ ID NO: 275, VL SEQ ID NO: 325 (antibody, V domains shown)
VH: QVQLRESGPGLVAPSQSLSITCTVSGFSLTDFGVNWVRQPPGKGLEWLGIIWANGRIEYNSALKSRLSISKDNSRSQVFLKLNSLQTDDTARYYCARDHDYDVEAMDYWGQGTSVTVSA
VL: QIVLTQSPAIKSASPGEKVTMTCSASSSVIYMHWYQQKSGSSPKRWIYDTSKLASGVPVRFSGSGSGTSYSLTISTMEAEDAATYYCQQWSSYPPTFGGGTKVEIK
modifications: SB5 heavy chain variable region; SB5 light chain variable region
Internalization MDA-MB-231 (%) (MDA-MB-231 cells [1]): 15.63%

B2: SB6: anti-CDCP1 antibody by single B cell technique; VH SEQ ID NO: 276, VL SEQ ID NO: 326 (antibody, V domains shown)
VH: QGQMQQSGAELVKPGASVKLSCKTSGFTFNSSYITWLKQKPGQSLEWIAWIFAGTGGTYYNEKFTDKAQLTVDTTSSTAYMQFSSLTTEDSAIYYCARHGLGYDYWGQGTTLTVSS
VL: SIVMTQTPKFLLVSAGDRVTITCKASQSVNTDVAWYQQKSGQSPKLLIYSASNRYTGVPDRFTGSGYGTDFTFTISTVQAEDLAVYFCQQDHSSPPWTFGGGTKLEIK
modifications: SB6 heavy chain variable region; SB6 light chain variable region
Internalization MDA-MB-231 (%) (MDA-MB-231 cells [1]): 63.21%

EC50 (MDA-MB-231 cells [2]): 0.93 nM | EC50 (PC3 cells [3]): 0.91 nM
B3: SB8: anti-CDCP1 antibody by single B cell technique; VH SEQ ID NO: 278, VL SEQ ID NO: 328 (antibody, V domains shown)
VH: QVTLKESGPGILKPSQTLSLTCSFSGFSLSTSGVGVGWIRQPSGKGLEWLAHIWWDDEKYYNPSLKSHFTISKDTSRNQVFLKITSVDTADTATYYCVKEGDGMDYWGQGTSVTVSS
VL: QAVVTQESALTTSPGETVTLTCRSSTGAVATSNYANWVQEKPDHLFTGLIGGTNNRVPGVPARFSGSLIGDKAALTITGAQTEDEAIYFCALWYSNHWVFGGGTKLTVL
modifications: SB8 heavy chain variable region; SB8 light chain variable region

B4: SB1: anti-CDCP1 antibody by single B cell technique; VH SEQ ID NO: 271, VL SEQ ID NO: 321 (antibody, V domains shown)
VH: QVQLQQSGPDLVRPGESVKISCKGSGYTFTDHAIHWVRQSHAKSLEWIGVISFSYDNTKYNQNFKGKATMTVDKSSNTAYMELARLTSEDSAIYYCARDCYGSNRGYFDYWGQGTTLTVSS
VL: DIRMTQSPSSMYASLGERVTITCKASQDINRFLSWFLQRPGKAPKTLIYRANNLVEGVPSRFSGSGSGQDYSLIISNLEYEDMGIYYCLQYDEFPRTFGGGTKLEIK
modifications: SB1 heavy chain variable region; SB1 light chain variable region
Internalization MDA-MB-231 (%) (MDA-MB-231 cells [1]): 34.65%

B5: SB7: anti-CDCP1 antibody by single B cell technique; VH SEQ ID NO: 277, VL SEQ ID NO: 327 (antibody, V domains shown)
VH: QVQLQQSGPELVSPGESVKISCKGSGYTFTDYAVHWVKQSHSKSLEWIGVKSVYYGITKYSQNFKDKATMTVDKSSSTAYMELARLTSEDSAIYYCARDSYGSSRGYFDYWGQGTTLTVSS
VL: DIKMTQSPSSIYVSPGERVTITCKASQDINSFLSWFQQKPGKSPKTLIYRANRLVDGVPSRFSGSGSGQDYSLTISSLEYEDMGIYYCLQYDEFPRTFGGGTKLEIK
modifications: SB7 heavy chain variable region; SB7 light chain variable region
Internalization MDA-MB-231 (%) (MDA-MB-231 cells [1]): 31.67%

B6: 10D2: anti-CDCP1 murine monoclonal antibody (hybridoma); VH SEQ ID NO: 260, VL SEQ ID NO: 310 (antibody, V domains shown)
VH: EVQLQQSGPELKKPGETVKISCKASGYTFTDYSMHWVKQAPGKGLKWMGWINTETGQPTYADDFKGRFAFSLETSASSAYLQINNLKNEDTATYFCTRTFYYDYVGDYWGQGTTVTVSS
VL: DIVMTQSHKFMSTSVGDRVSITCKASQDVSTAVAWYRQKPGQSPKLLIYWASTRHTGVPDRLTGSGSGTDFALTINSVQAEDLALYYCQQHSSTPYTFGGGTKLEIK
modifications: 10D2 heavy chain variable region; 10D2 light chain variable region
Internalization MDA-MB-231 (%) 0.5 h (MDA-MB-231 cells [4]; MDA-MB-231, 0.5 h at 37° C.): 46.38% | Internalization MDA-MB-231 (%) 1 h (MDA-MB-231 cells [4]; MDA-MB-231, 1 h at 37° C.): 57.85% | Internalization MDA-MB-231 (%) 2 h (MDA-MB-231 cells [4]; MDA-MB-231, 2 h at 37° C.): 70.77% | Internalization PC3 (%) 0.5 h (PC3 cells [5]; PC3, 0.5 h at 37° C.): 21.48% | Internalization PC3 (%) 1 h (PC3 cells [5]; PC3, 1 h at 37° C.): 41.99% | Internalization PC3 (%) 2 h (PC3 cells [5]; PC3, 2 h at 37° C.): 64.19% | effect on tumor cell growth (FIG. 4a) (MDA-MB-231 cells [6]): did not exhibit an effect on tumor cell growth | effect on tumor cell growth (FIG. 4b) (PC-3 cells): did not exhibit an effect on tumor cell growth | effect on tumor cell migration (transwell, FIG. 4c) (MDA-MB-231 cells [7]): better capability to inhibit tumor cell migration than SEQ135

B7: SB4: anti-CDCP1 antibody by single B cell technique; VH SEQ ID NO: 274, VL SEQ ID NO: 324 (antibody, V domains shown)
VH: QVQLQQSGAELVRPGTSVKISCKASGYTFTNYWLGWVKQRPGHGLEWIGDNYPGDNYRNFNEKFKGKATLTTDASSSTAYLQLSSLISEDSAVYFCTRSGGSRYYTMDYWGQGTSVTVSS
VL: DIVMTQAAFSNPVTLGTSASISCRSSRSLLHNNGITYLYWYLQKPGQSPQLLIYQMSNLASGVPDRFHSSGSGTDFTLSISRVEAEDVGVYYCAQNLDLPYTFGGGTKLEIK
modifications: SB4 heavy chain variable region; SB4 light chain variable region
Internalization MDA-MB-231 (%) (MDA-MB-231 cells [1]): 83.16%
